Assay results as given in PMC10209884, “Hypochlorite-induced oxidation promotes aggregation and reduces toxicity of amyloid beta 1-42” (Redox Biology, 2023).

Legend:
cortical neurons = conditions: in vitro, cortical neurons from rodents; cited from earlier work
From the text: The exact concentration of hypochlorite generated in cerebral spinal fluid is not known, but myeloperoxidase has been measured in human cerebrospinal fluid (CSF) from cognitively normal donors at 101 ± 43 pg/ml with corresponding activity of 0.0292 ± 0.001 mU [34]. Although myeloperoxidase activity is much less in CSF than in human serum, human serum also contains high levels of albumin which acts as an antioxidant. […] Considering that 3-chl ...

SH-SY5Y cells = assay: Incucyte endocytosis assay (colocalization with Lysotracker Red); format: cell-based, human; conditions: Aβ1-42-Hilyte-488 (50 μM) pre-treated with 160 μM NaOCl, compared to copper/H2O2 treatment, Ham's F12, 4 °C, 4 days; 1 μM on cells, 1 h; n = 27 areas from three wells
Procedure: Images of the cells were taken after 1 h using an Incucyte SX5 (Sartorius).
Aβ1-42-Hilyte-488 (50 μM) was incubated with 160 μM NaOCl or […]/H2O2 in Ham's/F12 or Ham's/F12 alone for 4 days at 4 °C. SH-SY5Y cells seeded at 15,000 cells/well in a 96-well plate were then treated with 1 μM of Aβ1-42-Hilyte-488 in NB27 containing 100 nM Lysotracker Red DND-99. Images of cells (9 images per well) were taken after 1 h using an Incucyte SX5 (Sartorius). Colocalization of Aβ1-42-Hilyte-488 with Lysotracker Red was calculated using Incucyte live cell analysis software.

[1] = Western blot analysis of SDS-resistant Aβ1-42 assemblies; format: physicochemical; conditions: higher concentrations of NaOCl, PBS overnight at ambient room temperature; 10-20% tris-tricine gel, WO2 Western blot
Procedure: (§1) When incubations differed from these standard conditions for a specific experiment, the details are provided in the relevant figure legend and in the relevant section of the Methods section.
Gels were stained using Instant Blue stain (Abcam; Melbourne, VIC, AUS) and imaged with Geldoc Go imager (Bio-Rad, NSW, AUS).
Blots were imaged after exposure to enhanced chemiluminescence reagent (Bio-Rad, NSW, AUS) using a ChemiDoc MP Imaging system (Bio-Rad, NSW, AUS).

[2] = Filter trap assay (insoluble Aβ1-42 retained on cellulose acetate membrane); format: physicochemical; conditions: co-incubation with 1.6-fold molar excess of NaOCl vs Aβ1-42 in PBS alone; Aβ1-42 55 μM, PBS pH 7.4, overnight, ambient room temperature; 0.22 μm cellulose acetate membrane, WO2 blot densitometry; mean of n = 3
Procedure: as §1
Following treatment with NaOCl, Aβ1-42 samples were subjected to filter trap assay in order to estimate the amount of peptide present in the insoluble fraction. […] Following extraction of the soluble fraction using a vacuum, the wells of the apparatus were washed three times using 0.01% (v/v) Triton-X in PBS. […] Blots were imaged after exposure to enhanced chemiluminescence reagent (Bio-Rad, NSW, AUS) using a ChemiDoc MP Imaging system (Bio-Rad, NSW, AUS).

[3] = Size exclusion chromatography of Aβ1-42 assemblies; format: physicochemical; conditions: 66.67 μM Aβ1-42, PBS, 1 h ambient room temperature
From the text: The absorbance at 280 nm was used to monitor the elution of the peptide.

[4] = tested on: SH-SY5Y neuroblastoma cells; assay: Incucyte Cytotox Green cell death assay; format: cell-based, human; conditions: Aβ1-42 (100 μM) pre-incubated with 80 μM NaOCl in Ham's/F12 2 h ambient room temperature; 15 μM Aβ1-42 on cells; vs Aβ1-42 without NaOCl
Procedure: Cell viability was also measured in real-time using Cytotox Green reagent (Essen Bioscience) in an Incucyte SX5 (Sartorius, South VIC, AUS), according to the manufacturer's instructions.

[5] = BisANS assay of surface exposed hydrophobicity; format: physicochemical; conditions: NaOCl at sub-stoichiometric concentration vs Aβ1-42 in PBS alone, overnight, ambient room temperature, 10 μM Aβ1-42, 20 μM bisANS, 5 min, 25 °C, Ex 360 nm, Em 502 nm, mean of n = 10
Procedure: as §1
Aβ1-42 was treated with NaOCl and the solutions supplemented with excess L-Met. […] BisANS fluorescence (Excitation 360 nm, Emission 502 nm) was then measured using a Clariostar platereader (BMG Labtech). The data shown is the average BisANS fluorescence of n = 10 samples and is adjusted for background fluorescence.

[6] = Electrospray mass spectrometry of Aβ1-42 oxidation by NaOCl; format: physicochemical; conditions: 5-fold molar excess of NaOCl; 31 μM Aβ1-42, PBS, 1 h on ice/4 °C, quenched with 20 mM L-Met; electrospray MS
Procedure: Aβ1–42 (31 μM) was incubated with NaOCl (0–360 μM) in PBS on ice for 1 h and the reaction was quenched using L-Met (20 mM). Electrospray mass spectrometry was performed on a Xevo G2 mass spectrometer and data was analyzed using MassLynx software (Waters UK, Elstree, Hertfordshire, UK) at the Department of Chemistry, University of Cambridge.

[7] = Thioflavin T (ThT) assay of amyloid fibril formation; format: physicochemical
Procedure: Aβ1–42 (4–5 μM) was incubated at 28 °C with shaking in PBS ± NaOCl containing ThT (20–25 μM). The ThT fluorescence of the samples was continuously monitored using a Clariostar platereader with excitation and emission wavelengths of 440 nm and 480 nm (slit widths of 10 nm), respectively. The data shown is the mean fluorescence of triplicate samples and is adjusted for the background fluorescence. In additional experiments, Aβ1–42 was pre-treated with NaOCl in PBS for 1 h at ambient room temperature before being supplemented with excess L-Met (20 mM). A control sample of Aβ1–42 was incubated in the absence of NaOCl as described previously and supplemented with L-Met. Aβ1–42 preparations were then subjected to a ThT assay incubated at 37 °C under quiescent conditions, and monitored as described above. Half-time (t1/2) values are the time to reach half of the maximum ThT fluorescence, calculated after normalising the aggregation data for 3 independent assays.

[8] = Transmission electron microscopy of ThT assay end-point samples; format: physicochemical; conditions: end-point samples of ThT assay after NaOCl pre-treatment; 2% uranyl acetate stain
Procedure: Samples from the ThT kinetics assay (endpoints) were prepared for TEM on 400-mesh carbon film coated copper grids (EM resolutions Ltd.) and stained with 2% (w/v) uranyl acetate. Grids were imaged with a FEI Tecnai G2 transmission electron microscope (Cambridge Advanced Imaging Centre, University of Cambridge) and subsequent images analyzed with SIS Megaview II Image Capture system (Olympus).

Compound: [Na+].[O-]Cl [hypochlorite, sodium hypochlorite]
- hypochlorite concentration at which neurons are resistant to cell death (cortical neurons): up to 200 μM

Compound: NaOCl-treated Aβ1-42: Aβ1-42 pre-incubated with sodium hypochlorite; singly oxidised species in heterogeneous assemblies
- internalisation to lysosomes (colocalization area of Aβ1-42-Hilyte-488 and Lysotracker Red) (SH-SY5Y cells): preferentially internalise
- size of higher order SDS-resistant Aβ1-42 assemblies [1]: ~150 kDa
- reduction in insoluble Aβ1-42 detected by filter trap assay [2]: 95%
- SEC approximate molecular masses of predominate peaks ([3]; 2-fold molar excess of NaOCl (133.33 μM), Superdex 75 Increase 3.2/300, A280, ≥100 kDa = exclusion limit): ≥ 100 kDa

Compound: amyloid beta peptide 1–42 [Aβ1-42]
- cell death after 72 h (green object count) [4]: approximately halved
- BisANS fluorescence (surface exposed hydrophobicity) [5]: substantial decrease
- fraction of the peptide oxidised (singly oxidised species, 4530 Da) [6]: around half
- amyloid-associated ThT fluorescence over a 7-hr time course ([7]; co-incubation with 2-fold molar excess of NaOCl, 5 μM Aβ1-42, 25 μM ThT, PBS, 28 °C, orbital shaking, mean of n = 4): significantly suppress
- increase in amyloid-associated ThT fluorescence (half-time t1/2) ([7]; pre-treatment with 1.6-fold molar excess of NaOCl in PBS 1 h RT, quenched with excess L-Met, 4 μM Aβ1-42, 25 μM ThT, 37 °C, mean of n = 3): significantly delayed
- amyloid-associated ThT fluorescence over the 15 h of the assay ([7]; pre-treatment with 3.2-fold molar excess of NaOCl in PBS 1 h RT, quenched with excess L-Met, 4 μM Aβ1-42, 25 μM ThT, 37 °C, mean of n = 3): prevented
- formation of amyloid fibrils by TEM [8]: markedly reduced
- SEC apparent size of the majority of the peptide (monomer) ([3]; no NaOCl, Superdex 75 Increase 3.2/300, 0.05 ml/min, A280): 4.5 kDa
